Biological target: the molecule itself
Assay: crystal structure; three structures of GlgE (apo form, maltose co-crystallization, maltose-1P co-crystallization); sitting-drop vapour diffusion at 291 K, ~7 mg/ml protein; one dimer per asymmetric unit

B1: Mycobacterium thermoresistibile GlgE (enzyme, UniProt G7CL00 1-696, looked up)
chain: MAGRIVIDDVQPVVSNGRYPAKAVVGEVVPVAATVWREGHDAVAATLVVRYHGTTYPDLADPPPGVPGADRTAVPIGDVMTPAAPVKPQRLPMSPGHTPDVFHGHFTPDRVGLWTYRVDGWGDPIASWRHNVTAKLDAGQGESELNNDLLVGARLLERAATGVPRELREALLEAAAALRAPGDPFTRAGAALSAEVSDLLAEYPLREFVTRGEQYGVWVDRPEARFSSWYEMFPRSTGGWDAEGRPVHGTFATAAEALPRIARMGFDVVYLPPIHPIGKVHRKGRNNSVTAAPGDVGSPWAIGSDEGGHDAVHPQLGTIEDFDEFVASARDLGLEVALDLALQCAPDHPWAREHPEWFTVLPDGSIAYAENPPKKYQDIYPLNFDNDPAGIYQEVLRVVRFWISHGVNIFRVDNPHTKPPNFWAWLIGQIKNENPDVLFLSEAFTRPARLYGLAKLGFTQSYTYFTWRTSKWELTEFGQEIAAKADIARPNLFVNTPDILHESLQHGGPGMFAIRAVLAATMGPAWGVYSGYELFENQPVRPGSEEYLNSEKYELRPRDFESALARGESLEPFLTRLNEIRRLHPALRELRTIRFHHVDNDALLAYSKFDPGTGDTVLVVVTLNPFGAEEATLWLDMPELGMEPYDRFWVRDEITGEEYQWGQANYVRLDPAKAVAHVLNMPLIPADKRLQLLRRE
notes: GlgE (alpha-1,4-glucan:maltose-1-phosphate maltosyltransferase) of Mycobacterium thermoresistibile DSM 44167; glgE gene amplified from chromosomal DNA with a forward primer that begins at the GTG start codon and a reverse primer that ends at the stop codon; The construct with the cleavable N-terminal SUMO tag gave all crystals; also called maltosyl transferase; source: E. coli BL21(DE3), purified …
In the case of B1, the “stoichiometry N” value is reported as 2.

Source: article PMC4663749, “Structure of Mycobacterium thermoresistibile GlgE defines novel conformational states that contribute to the catalytic mechanism” (Scientific Reports, 2015)
